Laboratory results as given in patent CN112125972A.

Experiments:
Experiment in all cases: double-antibody sandwich ELISA, R001 as detection antibody, against reference products of the different expression systems
[1] = molecular target: E1.16 HPV16 VLPs (Human papillomavirus type 16) (UniProt P03101)
[2] = molecular target: E2.16 HPV16 VLPs (Human papillomavirus type 16) (UniProt P03101)
[3] = molecular target: I1.16 HPV16 VLPs (Human papillomavirus type 16) (UniProt P03101)
[4] = molecular target: Y1.16 HPV16 VLPs (Human papillomavirus type 16) (UniProt P03101)
[5] = molecular target: Y2.16 HPV16 VLPs (Human papillomavirus type 16) (UniProt P03101)

Measured: 抗原/蛋白比值

B1: HPV 16 R001 (antibody, V domains shown)
VH: QSVKESEGRLVTPGTPLTLTCTASGFTMSRYHMTWVRQAPGKGLEWIGIIYARNSDTYYANWAKGRFTISKTSTTVDLKITSPTIEDTATYFCARVDSDSSGAFDRLDLWGQGTLVTVSS
VL: DPMLTQTAASVEVAVGGTVTIKCQASQSIGGYLSWYQQKPGQRPKLLIYRASTLASGVPSRFKGSGSGTEYTLTFSGVECADAAAYYCQQGYTSSDINNAFGGGTEVVVK
1: [1] | [2] | [3] | [4] | [5]
